# Source: patent publication EP4538286A1 (Adlai Nortye Biopharma Co., Ltd., dated 2025)
# Numbering of substitutions follows the chain as printed. Names and notes keep the numbering of the source.
# B1: Abs-264 (other)
# heavy: VIHVTKEVKEVATLSCGWNVSVEELVQTRIYWQKNKKMVLTMMSGDMNIWPEYKNRTIFDITNNLSIVILELRPSDEGTYECVVNKYEKDAFKREHLAEVTLSVKADGGGGSGGGGSGGGGSGGGGSGEVQLLESGGGLVQPGGSLRLSCAASGFTFSSYAMSWVRQAPGKGLEWVSGISGSGGFTYYADSVKGRFTISRDNSKNTLYLQMNSLRAEDTAVYYCAKPPRGYNYGPFDYWGQGTLVTVSSASTKGPSVFPLAPCSRSTSESTAALGCLVKDYFPEPVTVSWNSGALTSGVHTFPAVLQSSGLYSLSSVVTVPSSSLGTKTYTCNVDHKPSNTKVDKRVESKYGPPCPPCPAPEFLGGPSVFLFPPKPKDTLMISRTPEVTCVVVDVSQEDPEVQFNWYVDGVEVHNAKTKPREEQFNSTYRVVSVLAVLHQDWLNGKEYKCKVSNKGLPSSIEKTISKAKGQPREPQVYTLPPSQEEMTKNQVSLTCLVKGFYPSDIAVAWESNGQPENNYKTTPPVLDSDGSFFLYSRLTVDKSRWQEGNVFSCSVMHEALHAHYTQKSLSLSLGK
# light: SYVLTQPPSVSVAPGQTARITCGGNNIGSKSVHWYQQKPGQAPVLVVYDDSDRPSGIPERFSGSNSGNTATLTISRVEAGDEADYYCQVWDSSSDHVVFGGGTKLTVLGQPKAAPSVTLFPPSSEELQANKATLVCLISDFYPGAVTVAWKADSSPVKAGVETTTPSKQSNNKYAASSYLSLTPEQWKSHRSYSCQVTHEGSTVEKTVAPTECS
# notes: the paragraph that names the antibody is followed; also called CD80 IgV mutant H18W/A26V/E35N/A71E/L85N-sugemalimab fusion
# B2: Abs-357 (other)
# heavy: B1 heavy with W18H, V26A, N35S, N85L
# light: B1 light
# notes: CD80 IgV mutant fused to the N-terminus of the sugemalimab heavy chain; also called CD80 IgV mutant E35S/A71E-sugemalimab fusion
# B3: Abs-364 (other)
# heavy: B1 heavy with W18H, V26A, N35Q, E71T, N85L
# light: B1 light
# notes: CD80 IgV mutant fused to the N-terminus of the sugemalimab heavy chain; also called CD80 IgV mutant E35Q/A71T-sugemalimab fusion
# B4: Abs-359 (other)
# heavy: B1 heavy with W18H, V26A, N35S, E71Q, N85L
# light: B1 light
# notes: CD80 IgV mutant fused to the N-terminus of the sugemalimab heavy chain; also called CD80 IgV mutant E35S/A71Q-sugemalimab fusion
# B5: Abs-361 (other)
# heavy: B1 heavy with W18H, V26A, N35Q, N85L
# light: B1 light
# notes: CD80 IgV mutant fused to the N-terminus of the sugemalimab heavy chain; also called CD80 IgV mutant E35Q/A71E-sugemalimab fusion
# B6: Abs-367 (other)
# heavy: B1 heavy with W18H, V26A, N35T, E71Q, N85L
# light: B1 light
# notes: the paragraph that names the antibody is followed; also called CD80 IgV mutant E35T/A71Q-sugemalimab fusion
# B7: Abs-365 (other)
# heavy: B1 heavy with W18H, V26A, N35T, N85L
# light: B1 light
# notes: CD80 IgV mutant fused to the N-terminus of the sugemalimab heavy chain; also called CD80 IgV mutant E35T/A71E-sugemalimab fusion
# B8: Abs-355 (other)
# heavy: B1 heavy with W18H, V26A, E71Q, N85L
# light: B1 light
# notes: CD80 IgV mutant fused to the N-terminus of the sugemalimab heavy chain; also called CD80 IgV mutant E35N/A71Q-sugemalimab fusion
# B9: Abs-356 (other)
# heavy: B1 heavy with W18H, V26A, E71T, N85L
# light: B1 light
# notes: CD80 IgV mutant fused to the N-terminus of the sugemalimab heavy chain; also called CD80 IgV mutant E35N/A71T-sugemalimab fusion
# B10: Abs-360 (other)
# heavy: B1 heavy with W18H, V26A, N35S, E71T, N85L
# light: B1 light
# notes: CD80 IgV mutant fused to the N-terminus of the sugemalimab heavy chain; also called CD80 IgV mutant E35S/A71T-sugemalimab fusion
# B11: Abs-363 (other)
# heavy: B1 heavy with W18H, V26A, N35Q, E71Q, N85L
# light: B1 light
# notes: CD80 IgV mutant fused to the N-terminus of the sugemalimab heavy chain; also called CD80 IgV mutant E35Q/A71Q-sugemalimab fusion
# B12: Abs-354 (other)
# heavy: B1 heavy with W18H, V26A, E71N, N85L
# light: B1 light
# notes: CD80 IgV mutant fused to the N-terminus of the sugemalimab heavy chain; also called CD80 IgV mutant E35N/A71N-sugemalimab fusion
# B13: Abs-358 (other)
# heavy: B1 heavy with W18H, V26A, N35S, E71N, N85L
# light: B1 light
# notes: CD80 IgV mutant fused to the N-terminus of the sugemalimab heavy chain; also called CD80 IgV mutant E35S/A71N-sugemalimab fusion
# B14: Abs-362 (other)
# heavy: B1 heavy with W18H, V26A, N35Q, E71N, N85L
# light: B1 light
# notes: CD80 IgV mutant fused to the N-terminus of the sugemalimab heavy chain; also called CD80 IgV mutant E35Q/A71N-sugemalimab fusion
# B15: Abs-368 (other)
# heavy: B1 heavy with W18H, V26A, N35T, E71T, N85L
# light: B1 light
# notes: the paragraph that names the antibody is followed; also called CD80 IgV mutant E35T/A71T-sugemalimab fusion
# Target: T1, human CD28 protein (human, UniProt P10747 19-152)
# T1 construct: bought protein coated on the ELISA plate; also called human CD28 antigen
# T1 sequence (P10747 19-152 limits assumed): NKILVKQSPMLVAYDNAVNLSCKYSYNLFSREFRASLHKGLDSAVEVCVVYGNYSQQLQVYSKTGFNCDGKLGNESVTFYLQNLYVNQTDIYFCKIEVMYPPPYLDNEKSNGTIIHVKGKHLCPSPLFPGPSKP
# Assay: ELISA, plate-coated human CD28
# Set-up: binding strength @ 100nM: reference not given here
Binder,binding result,EC50 [nM],binding strength @ 100nM [%]
B1,no binding,–,–
B2,–,26,585
B3,–,27.6,785
B4,–,21.1,450
B5,no binding,–,–
B6,–,27.7,700
B7,–,27.9,857
B8,–,26.8,530
B9,–,27.8,733
B10,–,25.9,933
B11,no binding,–,–
B12,–,22.1,6300
B13,no binding,–,–
B14,–,26.1,1100
B15,–,28.7,700

# Target: PD-L1 on TCR activator PD-L1-CHO cells (UniProt Q9NZQ7 19-290, limits assumed)
# Sequence (Q9NZQ7 19-290 limits assumed): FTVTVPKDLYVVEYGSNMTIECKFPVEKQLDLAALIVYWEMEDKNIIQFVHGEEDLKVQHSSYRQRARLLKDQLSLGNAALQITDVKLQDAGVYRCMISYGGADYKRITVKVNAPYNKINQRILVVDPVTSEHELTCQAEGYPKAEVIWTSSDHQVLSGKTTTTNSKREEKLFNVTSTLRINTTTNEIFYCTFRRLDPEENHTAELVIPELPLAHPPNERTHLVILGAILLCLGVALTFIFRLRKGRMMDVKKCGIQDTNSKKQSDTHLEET
# Assay: cell-based or functional assay
Binder,"EC50(nM), Jurkat-NFAT-Luc/CHO-PDL1 [nM]",The highest induction relative to 10 nM sugemalimab [%]
B1,0.82,154
B2,1,238
B3,1.06,150
B4,0.88,42
B5,1.13,334
B6,1.84,113
B7,2.75,129
B8,0.56,1110
B9,0.9,441
B10,0.82,64
B11,1,121
B12,0.25,1610
B13,1.1,277
B14,0.58,337
B15,0.52,138

# Target: T2, human CTLA4 protein (human, UniProt P16410 37-162, limits assumed)
# T2 construct: bought protein coated on the ELISA plate; also called human CTLA4 antigen
# T2 sequence (looked up): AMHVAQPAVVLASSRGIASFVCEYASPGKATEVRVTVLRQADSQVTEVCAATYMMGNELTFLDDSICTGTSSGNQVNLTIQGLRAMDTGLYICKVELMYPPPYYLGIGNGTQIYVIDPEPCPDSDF
# Assay: ELISA, plate-coated human CTLA4
Binder,binding result,EC50 [nM],binding strength @ 20nM [%]
B1,no binding,–,–
B2,–,17.8,1830
B3,–,5.45,3130
B4,–,26.4,766
B5,no binding,–,–
B6,–,26.5,640
B7,–,24.7,400
B8,–,0.236,3420
B9,–,18.5,1670
B10,–,26.7,316
B11,no binding,–,–
B12,–,0.124,3010
B13,no binding,–,–
B14,–,8.39,3180
B15,no binding,–,–
